The record followed here is article PMC13276077.

The target in data set [1] is MeCP2 full-length, e2 isoform;histone octamer (Homo sapiens;, UniProt P51608;P0C0S8;P62807;P68431;P62805 1-486;2-130;2-126;2-136;2-103, |H2B T115C;H3.1 C96S;C110A). Nature of the data set: EMSA; 20 mM HEPES pH 7.5, 75 mM NaCl, 125 mM KCl, 50 uM EDTA, 2.5 mM beta-mercaptoethanol, 5% glycerol, BSA, 1.58 uM 47 bp competitor DNA (nucleosome assays); absent w. In general terms: Mobility shift assays separate free from complexed probe on a gel.

The target in data set [2] is MeCP2 MBD;histone octamer (Homo sapiens;Homo sapiens, UniProt P51608;P0C0S8;P62807;P68431;P62805 77-167;2-130;2-126;2-136;2-103, |H3.1 C96S;C110A). Kind of data set: EMSA; no competitor DNA; 20 mM HEPES pH 7.5, 75 mM NaCl, 125 mM KCl, 50 uM EDTA, 2.5 mM beta-mercaptoethanol, 5% glycerol, BSA, 1.58 uM 47 bp competitor DNA (nucleosome assays); absent w.
For data set [3], the target named is MeCP2 full-length, e2 isoform;histone octamer (Homo sapiens;Homo sapiens, UniProt P51608;P0C0S8;P62807;P68431;P62805 1-486;2-130;2-126;2-136;2-103, |H3.1 C96S;C110A). Described as above.
Data set [4] deals with MeCP2 MBD;histone octamer, H3Kc27me3 (Homo sapiens;Homo sapiens, UniProt P51608;P0C0S8;P62807;P68431;P62805 77-167;2-130;2-126;2-136;2-103, |H3.1 K27C (trimethyl-lysine analogue, Kc27me3);C96S;C110A). Nature of the data set: EMSA; H3K27me3 histone octamer; no competitor DNA; 20 mM HEPES pH 7.5, 75 mM NaCl, 125 mM KCl, 50 uM EDTA, 2.5 mM beta-mercaptoethanol, 5% glycerol, BSA, 1.58 uM 47 bp competitor DNA (nucleosome assays); absent w.

Data set [5] has as its target MeCP2 full-length, e2 isoform;histone octamer, H3Kc27me3 (Homo sapiens;Homo sapiens, UniProt P51608;P0C0S8;P62807;P68431;P62805 1-486;2-130;2-126;2-136;2-103, |H3.1 K27C (trimethyl-lysine analogue, Kc27me3);C96S;C110A). The description is as above.
Data set [6] addresses MeCP2 full-length, e2 isoform;histone octamer, tailless H3 (Homo sapiens;Homo sapiens, UniProt P51608;P0C0S8;P62807;P68431;P62805 1-486;2-130;2-126;26-136;2-103, |H3.1 del1-24;A25C;C96S;C110A). Nature of the data set: EMSA; H3-tailless histone octamer; no competitor DNA; 20 mM HEPES pH 7.5, 75 mM NaCl, 125 mM KCl, 50 uM EDTA, 2.5 mM beta-mercaptoethanol, 5% glycerol, BSA, 1.58 uM 47 bp competitor DNA (nucleosome assays); absent w.

Data set [7] addresses MeCP2 MBD;histone octamer, tailless H3 (Homo sapiens;Homo sapiens, UniProt P51608;P0C0S8;P62807;P68431;P62805 77-167;2-130;2-126;26-136;2-103, |H3.1 del1-24;A25C;C96S;C110A). The description is as above.
Data set [8] has as its target MeCP2 full-length, e2 isoform;histone octamer, acidic patch mutant (Homo sapiens;Homo sapiens, UniProt P51608;P0C0S8;P62807;P68431;P62805 1-486;2-130;2-126;2-136;2-103, |H2A E61A;E91A;E92A;H2B E113A;H3.1 C96S;C110A). Kind of data set: EMSA; acidic patch mutant histone octamer; no competitor DNA; 20 mM HEPES pH 7.5, 75 mM NaCl, 125 mM KCl, 50 uM EDTA, 2.5 mM beta-mercaptoethanol, 5% glycerol, BSA, 1.58 uM 47 bp competitor DNA (nucleosome assays); absent w.

Data set [9] deals with MeCP2 MBD;histone octamer, acidic patch mutant (Homo sapiens;Homo sapiens, UniProt P51608;P0C0S8;P62807;P68431;P62805 77-167;2-130;2-126;2-136;2-103, |H2A E61A;E91A;E92A;H2B E113A;H3.1 C96S;C110A). The description is as above.

B1: N601 nucleosome core particle -1 meCpG (nucleosome)
DNA 1: CAGGATGTATATATCTGACACGTGCCTGGAGACTAGGGAGTAATCCCCTTGGCGGTTAAAACGCGGGGGACAGCGCGTACGTGCGTTTAAGCGGTGCTAGAGCTGTCTACGACCAATTGAGCGGCCTCGGCACCGGGATTCTCCA
DNA 2: TGGAGAATCCCGGTGCCGAGGCCGCTCAATTGGTCGTAGACAGCTCTAGCACCGCTTAAACGCACGTACGCGCTGTCCCCCGCGTTTTAACCGCCAAGGGGATTACTCCCTAGTCTCCAGGCACGTGTCAGATATATACATCCTG
modifications: meCpG at -1
Usually Kd stands for the constant that tells how readily two partners part at equilibrium. As for B1, the binding result in [1] was “no binding”. The Kd in [2] worked out at 50.7 nM; in [3], 44.2 nM; in [4], 85.5 nM; in [5] it was 56.8 nM; in data set [6], 29.2 nM; in [7], 35.5 nM. For the same molecule, the Kd in data set [8] was determined as 49.7 nM; in [9] it was 51.5 nM.
